Measured values reported in article PMC11335228.
Several values for one entry are separate records, joined by “and”; a condition that tells them apart may be missing. Equal values may be shown once.

Experiments:
Conditions in all cases: remark: other sources report otherwise
[1] = biological target: T1, DAP12, endogenous in macrophage-like differentiated THP-1 cells (human (endogenous in THP-1)), O43914; assay: non-reducing SDS-PAGE and western immunoblotting; membranes of differentiated THP-1 cells (wt and TREM2 ko; with or without MG132, lactacystin or chloroquine for 4 h); SDS sample buffer without DTT, 5 min 95 °C
[2] = biological target: T1, DAP12, endogenous in macrophage-like …; assay: as above; remark: listed apart in the source
[3] = biological target: T2, DNAX-activating protein of 12 kDa (DAP12) wt, overexpressed in HEK293 cells, O43914; assay: SDS-PAGE and western immunoblotting; HEK293 cells transiently expressing DAP12 wt or DAP12 D50A with or without TREM2 (blots of Fig. 5A); SDS resistant oligomers
[4] = biological target: T2, DNAX-activating protein of 12 kDa …; assay: SDS-PAGE and western immunoblotting; membranes of HEK293 Flp-In cells stably overexpressing DAP12 alone or with TREM2 wt or TREM2 K186N; with or without proteasome inhibitors (Suppl. Figure S3)

| Binder | stoichiometry N [1] | stoichiometry N [2] | stoichiometry N [3] | stoichiometry N [4] |
| --- | --- | --- | --- | --- |
| DAP12, endogenous in macrophage-like differentiated THP-1 cells, O43914 22-113 (natural protein) LRPVQAQAQSDCSCSTVSPGVLAGIVMGDLVLTVLIALAVYFLGRLVPRGRGAAEAATRKQRITETESPYQELQGQRSDVYSDLNTQRPYYK | 3 | 2 | – | – |
| DNAX-activating protein of 12 kDa (DAP12) wt, overexpressed in HEK293 cells, O43914 22-113 (natural protein) LRPVQAQAQSDCSCSTVSPGVLAGIVMGDLVLTVLIALAVYFLGRLVPRGRGAAEAATRKQRITETESPYQELQGQRSDVYSDLNTQRPYYK | – | – | 3 and 4 | 2 and 3 |
